The text below walks through data of paper PMC4370478, “Inhibition of Zn(II) Binding Type IA Topoisomerases by Organomercury Compounds and Hg(II)”.

This data set concerns the target E. coli topoisomerase I (ETOP) (Escherichia coli, UniProt P06612 1-865). The data set can be described thus: fluorescence anisotropy; 0.5 mM MgCl2; no inhibitor (Kd fitted, value not in the text held); 50 mM Tris-HCl pH 7.5, 100 mM NaCl, 0.1 mM EDTA, 0.5 mM MgCl2; 10-30 nM oligonucleotide; temperature not stated. To be noted: label: 3' 6-carboxyfluorescein; hairpin, 16 bp stem.

Sequence of E. coli topoisomerase I (ETOP) (P06612 whole entry): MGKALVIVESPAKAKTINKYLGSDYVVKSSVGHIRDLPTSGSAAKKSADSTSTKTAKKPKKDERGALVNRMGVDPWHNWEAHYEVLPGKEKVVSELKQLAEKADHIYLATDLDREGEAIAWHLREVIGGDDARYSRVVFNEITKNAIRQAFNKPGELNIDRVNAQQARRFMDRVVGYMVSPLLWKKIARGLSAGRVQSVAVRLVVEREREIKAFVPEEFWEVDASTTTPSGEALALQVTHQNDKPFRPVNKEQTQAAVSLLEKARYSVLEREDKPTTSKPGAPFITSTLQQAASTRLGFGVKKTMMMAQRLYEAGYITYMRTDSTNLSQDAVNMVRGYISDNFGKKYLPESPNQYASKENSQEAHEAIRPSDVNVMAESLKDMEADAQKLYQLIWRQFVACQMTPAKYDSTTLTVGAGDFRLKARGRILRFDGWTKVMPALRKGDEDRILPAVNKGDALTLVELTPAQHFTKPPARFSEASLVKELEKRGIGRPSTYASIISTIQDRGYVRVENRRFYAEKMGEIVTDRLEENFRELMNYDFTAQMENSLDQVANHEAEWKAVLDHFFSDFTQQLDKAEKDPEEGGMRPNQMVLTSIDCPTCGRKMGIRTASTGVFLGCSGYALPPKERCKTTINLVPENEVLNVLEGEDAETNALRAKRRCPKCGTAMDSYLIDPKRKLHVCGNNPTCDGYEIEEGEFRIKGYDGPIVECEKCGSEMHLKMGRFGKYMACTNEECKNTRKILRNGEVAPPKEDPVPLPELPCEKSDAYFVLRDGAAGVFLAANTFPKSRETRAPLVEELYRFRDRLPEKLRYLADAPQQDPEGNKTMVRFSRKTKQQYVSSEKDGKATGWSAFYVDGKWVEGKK

B1: 59-base stem-loop oligonucleotide (non-cleavable) (structured_DNA)
DNA: GCCCTGAAAGATTATGGAATGGGATTAGGGTAAAGGAAGAGAGCATAATCTTTCAGGGC
As to B1, the binding result was “binds”.
